From the PETadex activity labels (doi:10.1016/j.bbrc.2018.11.148)

How the values were obtained:
Conditions in all cases: pH 8; 30 °C; part of the chain shown
p-NP-C12 = substrate: p-NP-C12
p-NP-C2 = substrate: p-NP-C2
p-NP-C4 = substrate: p-NP-C4
p-NP-C6 = substrate: p-NP-C6
p-NP-C8 = substrate: p-NP-C8

B1: unnamed (protein)
chain: MNFPRASRLMQAAVLGGLMAVSAAATAQTNPYARGPNPTAASLEASAGPFTVRSFTVSRPSGYGAGTVYYPTNAGGTVGAIAIVPGYTARQSSIKWWGPRLASHGFVVITIDTNSTLDQPSSRSSQQMAALRQVASLNGTSSSPIYGKVDTARMGVMGWSMGGGGSLISAANNPSLKAAAPQAPWDSSTNFSSVTVPTLIFACENDSIAPVNSSALPIYDSMSRNAKQFLEINGGSHSCANSGNSNQALIGKKGVAWMKRFMDNDTRYSTFACENPNSTRVSDFRTANCS
Which Km (p-NP-C12) does the source give for B1 here?
The Km was 2280 µM.

And the kcat (p-NP-C12)?
Its kcat is 1530 s⁻¹.

What about the kcat/Km (p-NP-C12) of the same protein?
The kcat/Km was 671000 M⁻¹ s⁻¹.

And the Km (p-NP-C2)?
Its Km is 431 µM.

What about the kcat (p-NP-C2) of the same protein?
The kcat was 1590 s⁻¹.

And the kcat/Km (p-NP-C2)?
Its kcat/Km is 3.69e+06 M⁻¹ s⁻¹.

And the Km (p-NP-C4)?
The Km was 315 µM.

What about the kcat (p-NP-C4) of the same protein?
The kcat was 1350 s⁻¹.

What about the kcat/Km (p-NP-C4) of the same protein?
The kcat/Km was 4.3e+06 M⁻¹ s⁻¹.

And the Km (p-NP-C6)?
The Km was 52.8 µM.

And the kcat (p-NP-C6)?
The kcat was 1350 s⁻¹.

What about the kcat/Km (p-NP-C6) of the same protein?
Its kcat/Km is 2.55e+07 M⁻¹ s⁻¹.

What about the Km (p-NP-C8) of the same protein?
The Km was 48.1 µM.

What about the kcat (p-NP-C8) of the same protein?
Its kcat is 519 s⁻¹.

What about the kcat/Km (p-NP-C8) of the same protein?
The kcat/Km was 1.08e+07 M⁻¹ s⁻¹.
